Data on 1 substance can be found in US6864054.

The assay addresses endogenous p53 (MRC5.SV40 cells; U-2 OS cells) (UniProt P04637). Nature of the assay: cell-based or functional assay.

endogenous p53 (MRC5.SV40 cells; U-2 OS cells), sequence (P04637 whole entry): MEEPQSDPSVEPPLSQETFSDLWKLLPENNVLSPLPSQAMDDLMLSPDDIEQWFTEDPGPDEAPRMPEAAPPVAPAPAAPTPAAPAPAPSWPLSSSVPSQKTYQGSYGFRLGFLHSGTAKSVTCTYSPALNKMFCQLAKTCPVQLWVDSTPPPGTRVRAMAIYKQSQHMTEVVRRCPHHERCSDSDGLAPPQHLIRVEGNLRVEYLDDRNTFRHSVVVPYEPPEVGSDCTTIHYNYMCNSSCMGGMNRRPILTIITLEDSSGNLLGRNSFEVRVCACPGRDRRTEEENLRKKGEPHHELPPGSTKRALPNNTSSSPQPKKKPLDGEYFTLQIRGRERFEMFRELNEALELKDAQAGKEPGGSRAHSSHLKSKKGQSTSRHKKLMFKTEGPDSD
full-length CBP, P45481 2-2441, sequence (P45481 2-2441 limits assumed): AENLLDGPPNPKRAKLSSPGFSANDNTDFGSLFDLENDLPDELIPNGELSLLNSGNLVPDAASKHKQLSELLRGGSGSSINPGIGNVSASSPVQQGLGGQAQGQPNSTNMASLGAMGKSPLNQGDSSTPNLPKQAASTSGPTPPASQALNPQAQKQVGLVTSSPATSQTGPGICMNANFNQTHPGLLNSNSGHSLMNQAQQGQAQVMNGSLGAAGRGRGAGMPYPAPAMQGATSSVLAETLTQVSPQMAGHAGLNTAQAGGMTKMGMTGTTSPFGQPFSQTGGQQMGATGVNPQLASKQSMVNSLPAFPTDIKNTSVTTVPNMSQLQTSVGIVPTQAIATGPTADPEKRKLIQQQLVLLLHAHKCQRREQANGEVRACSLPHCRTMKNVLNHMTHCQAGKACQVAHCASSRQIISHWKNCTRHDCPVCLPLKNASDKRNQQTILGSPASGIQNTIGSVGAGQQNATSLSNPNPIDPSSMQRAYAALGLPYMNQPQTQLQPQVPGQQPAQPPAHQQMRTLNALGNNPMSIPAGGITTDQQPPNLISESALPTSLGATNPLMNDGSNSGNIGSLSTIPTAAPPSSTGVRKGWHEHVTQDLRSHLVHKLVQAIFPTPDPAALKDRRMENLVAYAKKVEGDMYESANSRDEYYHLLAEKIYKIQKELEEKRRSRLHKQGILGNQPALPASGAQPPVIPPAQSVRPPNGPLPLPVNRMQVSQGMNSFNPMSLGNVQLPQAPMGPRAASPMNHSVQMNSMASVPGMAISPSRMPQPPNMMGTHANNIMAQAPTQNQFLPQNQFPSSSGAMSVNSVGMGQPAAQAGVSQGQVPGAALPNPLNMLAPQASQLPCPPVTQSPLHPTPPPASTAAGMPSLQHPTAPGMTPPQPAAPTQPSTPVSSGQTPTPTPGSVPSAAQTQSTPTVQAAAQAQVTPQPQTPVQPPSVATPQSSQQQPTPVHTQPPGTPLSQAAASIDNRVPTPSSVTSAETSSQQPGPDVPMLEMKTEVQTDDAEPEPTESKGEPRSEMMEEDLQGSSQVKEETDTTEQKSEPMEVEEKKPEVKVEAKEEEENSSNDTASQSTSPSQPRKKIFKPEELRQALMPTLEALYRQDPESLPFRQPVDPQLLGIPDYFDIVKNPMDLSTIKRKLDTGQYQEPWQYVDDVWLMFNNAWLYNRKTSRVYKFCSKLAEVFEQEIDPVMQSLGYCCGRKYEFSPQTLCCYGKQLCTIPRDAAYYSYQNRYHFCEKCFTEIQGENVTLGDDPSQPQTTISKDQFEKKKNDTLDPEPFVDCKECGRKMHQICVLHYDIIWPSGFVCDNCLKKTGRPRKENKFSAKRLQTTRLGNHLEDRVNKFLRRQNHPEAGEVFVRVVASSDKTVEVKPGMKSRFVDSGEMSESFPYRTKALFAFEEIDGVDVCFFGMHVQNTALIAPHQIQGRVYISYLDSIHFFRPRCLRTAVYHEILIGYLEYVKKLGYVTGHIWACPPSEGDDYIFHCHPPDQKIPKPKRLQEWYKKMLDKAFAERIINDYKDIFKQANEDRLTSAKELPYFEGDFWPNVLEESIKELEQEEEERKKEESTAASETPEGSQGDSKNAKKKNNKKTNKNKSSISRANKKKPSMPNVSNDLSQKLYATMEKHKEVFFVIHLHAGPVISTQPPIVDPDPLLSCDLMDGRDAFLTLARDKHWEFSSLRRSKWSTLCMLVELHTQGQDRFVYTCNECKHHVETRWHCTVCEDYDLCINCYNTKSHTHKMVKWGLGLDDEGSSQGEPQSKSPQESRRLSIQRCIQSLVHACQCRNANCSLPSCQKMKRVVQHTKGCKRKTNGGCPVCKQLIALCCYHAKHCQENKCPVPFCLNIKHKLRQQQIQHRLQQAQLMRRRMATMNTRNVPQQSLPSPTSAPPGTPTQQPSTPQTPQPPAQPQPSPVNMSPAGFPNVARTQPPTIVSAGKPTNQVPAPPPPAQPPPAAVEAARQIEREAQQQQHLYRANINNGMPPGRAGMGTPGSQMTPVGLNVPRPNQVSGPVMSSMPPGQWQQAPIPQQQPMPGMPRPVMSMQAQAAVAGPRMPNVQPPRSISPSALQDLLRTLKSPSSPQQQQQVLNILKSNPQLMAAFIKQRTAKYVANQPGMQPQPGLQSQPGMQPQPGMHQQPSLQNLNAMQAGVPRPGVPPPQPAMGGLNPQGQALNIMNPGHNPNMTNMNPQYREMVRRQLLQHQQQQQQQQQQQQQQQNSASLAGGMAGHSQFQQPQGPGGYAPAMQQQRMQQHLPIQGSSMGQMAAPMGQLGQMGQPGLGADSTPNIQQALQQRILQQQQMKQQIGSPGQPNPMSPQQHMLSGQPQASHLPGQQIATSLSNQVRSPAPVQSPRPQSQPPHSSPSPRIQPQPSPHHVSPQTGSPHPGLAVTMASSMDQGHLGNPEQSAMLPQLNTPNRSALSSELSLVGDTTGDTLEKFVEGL

On to full-length CBP, P45481 2-2441, for which the p53-dependent transcription (PG13CAT reporter, U2-OS cells) stood at 7 fold.
